Source: article PMC8231827, “A Novel Protein–Protein Interaction between RSK3 and IκBα and a New Binding Inhibitor That Suppresses Breast Cancer Tumorigenesis” (Cancers, 2021)

Target: T1, pBIND-IκBα (GAL4 DNA-binding domain fusion of IκBα) (UniProt P25963 1-317)
T1 construct: source: HEK293T, transfected, mammalian two-hybrid fusion
T1 sequence (looked up): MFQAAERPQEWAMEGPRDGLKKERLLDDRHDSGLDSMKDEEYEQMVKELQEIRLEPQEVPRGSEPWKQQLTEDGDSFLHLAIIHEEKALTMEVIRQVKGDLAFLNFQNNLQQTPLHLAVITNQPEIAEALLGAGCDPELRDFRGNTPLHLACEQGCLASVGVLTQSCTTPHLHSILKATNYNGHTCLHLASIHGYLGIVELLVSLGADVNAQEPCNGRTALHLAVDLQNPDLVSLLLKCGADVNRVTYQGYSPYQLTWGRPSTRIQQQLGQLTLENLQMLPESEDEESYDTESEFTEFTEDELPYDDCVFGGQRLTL
Experiment: two-hybrid; mammalian two-hybrid (CheckMate, Promega) in HEK293T: pBIND-IκBα (GAL4), pACT-RSK3 (VP16), pG5luc; firefly luciferase normalised to renilla, 24 h after transfection; also with RSK3I added 4 h after transfection
Conditions: partners not purified

B1: pACT-RSK3 (VP16 activation domain fusion of RSK3) (natural protein, UniProt Q15349 1-733, looked up)
chain: MDLSMKKFAVRRFFSVYLRRKSRSKSSSLSRLEEEGVVKEIDISHHVKEGFEKADPSQFELLKVLGQGSYGKVFLVRKVKGSDAGQLYAMKVLKKATLKVRDRVRSKMERDILAEVNHPFIVKLHYAFQTEGKLYLILDFLRGGDLFTRLSKEVMFTEEDVKFYLAELALALDHLHSLGIIYRDLKPENILLDEEGHIKITDFGLSKEAIDHDKRAYSFCGTIEYMAPEVVNRRGHTQSADWWSFGVLMFEMLTGSLPFQGKDRKETMALILKAKLGMPQFLSGEAQSLLRALFKRNPCNRLGAGIDGVEEIKRHPFFVTIDWNTLYRKEIKPPFKPAVGRPEDTFHFDPEFTARTPTDSPGVPPSANAHHLFRGFSFVASSLIQEPSQQDLHKVPVHPIVQQLHGNNIHFTDGYEIKEDIGVGSYSVCKRCVHKATDTEYAVKIIDKSKRDPSEEIEILLRYGQHPNIITLKDVYDDGKFVYLVMELMRGGELLDRILRQRYFSEREASDVLCTITKTMDYLHSQGVVHRDLKPSNILYRDESGSPESIRVCDFGFAKQLRAGNGLLMTPCYTANFVAPEVLKRQGYDAACDIWSLGILLYTMLAGFTPFANGPDDTPEEILARIGSGKYALSGGNWDSISDAAKDVVSKMLHVDPHQRLTAMQVLKHPWVVNREYLSPNQLSRQDVHLVKGAMAATYFALNRTPQAPRLEPVLSSNLAQRRGMKRLTSTRL
notes: RSK3 (RPS6KA2) cloned into pACT; source: HEK293T, transfected, mammalian two-hybrid fusion
fold luciferase activity over the pBind-IκBα vector-only control: ~3 fold
